Holding throughout (assay): fluorescence polarisation; fluorescence anisotropy; 1 nM FlAsH-labeled His6-SUMO-yUfd1 peptide, His6-yNpl4^113–580 in two-fold dilution series; 25 °C; 50 mM Tris-HCl pH 8.0, 100 mM NaCl, 5 mM β-mercaptoethanol, 0.1 g/L BSA
Conditions in all cases: both partners purified
Background: Fluorescence polarisation rises when a labelled molecule tumbles more slowly, as on binding a larger partner.

In one assay the target is T1, His6-yNpl4^113–580 F419A (Saccharomyces cerevisiae, UniProt P33755 113-580, F419A).
T1 construct: also called yNpl4 F419A; source: E. coli Rosetta (DE3), purified (Ni-NTA, Resource Q); not shown: His6, N-terminal, kept
T1 sequence (looked up): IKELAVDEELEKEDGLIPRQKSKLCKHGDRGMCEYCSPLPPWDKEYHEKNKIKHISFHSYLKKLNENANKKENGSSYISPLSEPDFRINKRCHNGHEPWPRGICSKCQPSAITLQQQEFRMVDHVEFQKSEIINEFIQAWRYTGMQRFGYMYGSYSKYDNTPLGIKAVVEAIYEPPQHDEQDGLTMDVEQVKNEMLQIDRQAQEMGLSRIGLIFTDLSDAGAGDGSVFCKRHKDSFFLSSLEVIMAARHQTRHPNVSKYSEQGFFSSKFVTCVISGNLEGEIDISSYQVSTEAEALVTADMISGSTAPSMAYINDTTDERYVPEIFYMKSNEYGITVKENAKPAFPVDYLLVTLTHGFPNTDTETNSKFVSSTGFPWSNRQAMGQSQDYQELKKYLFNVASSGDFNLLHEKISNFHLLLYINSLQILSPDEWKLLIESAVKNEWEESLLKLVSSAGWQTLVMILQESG

The next assay deals with T2, His6-yNpl4^113–580 M357A (Saccharomyces cerevisiae, UniProt P33755 113-580, M357A).
T2 construct: also called yNpl4 M357A; source: E. coli Rosetta (DE3), purified (Ni-NTA, Resource Q); not shown: His6, N-terminal, kept
T2 sequence (looked up): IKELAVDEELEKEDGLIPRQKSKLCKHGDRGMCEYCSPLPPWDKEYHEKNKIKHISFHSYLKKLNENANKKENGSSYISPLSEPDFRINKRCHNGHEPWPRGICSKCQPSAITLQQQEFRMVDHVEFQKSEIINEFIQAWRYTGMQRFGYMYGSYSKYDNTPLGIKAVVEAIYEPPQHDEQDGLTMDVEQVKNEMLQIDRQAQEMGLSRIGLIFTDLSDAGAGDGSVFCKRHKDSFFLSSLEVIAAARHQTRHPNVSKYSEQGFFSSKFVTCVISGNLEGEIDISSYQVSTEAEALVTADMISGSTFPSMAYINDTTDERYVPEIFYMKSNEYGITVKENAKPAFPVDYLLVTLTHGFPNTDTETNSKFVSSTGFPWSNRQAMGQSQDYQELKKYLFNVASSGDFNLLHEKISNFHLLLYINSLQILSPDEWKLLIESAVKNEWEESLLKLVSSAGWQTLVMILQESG

The target of a further assay is T3, His6-yNpl4^113–580 L353A (Saccharomyces cerevisiae, UniProt P33755 113-580, L353A).
T3 construct: also called yNpl4 L353A; source: E. coli Rosetta (DE3), purified (Ni-NTA, Resource Q); not shown: His6, N-terminal, kept
T3 sequence (looked up): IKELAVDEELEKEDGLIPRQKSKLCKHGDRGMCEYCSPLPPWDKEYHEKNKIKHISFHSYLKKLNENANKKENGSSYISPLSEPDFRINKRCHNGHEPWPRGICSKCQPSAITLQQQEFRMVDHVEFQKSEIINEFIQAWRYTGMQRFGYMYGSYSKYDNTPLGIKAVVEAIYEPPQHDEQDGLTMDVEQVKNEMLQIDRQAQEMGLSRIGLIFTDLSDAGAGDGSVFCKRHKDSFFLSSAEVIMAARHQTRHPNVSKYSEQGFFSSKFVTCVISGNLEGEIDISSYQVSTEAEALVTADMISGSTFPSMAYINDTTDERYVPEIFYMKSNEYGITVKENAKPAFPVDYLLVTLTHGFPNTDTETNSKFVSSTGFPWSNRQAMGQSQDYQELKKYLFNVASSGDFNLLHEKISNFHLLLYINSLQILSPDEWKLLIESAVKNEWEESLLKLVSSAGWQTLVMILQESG

The next assay deals with T4, His6-yNpl4^113–580 R364A (Saccharomyces cerevisiae, UniProt P33755 113-580, R364A).
T4 construct: also called yNpl4 R364A; source: E. coli Rosetta (DE3), purified (Ni-NTA, Resource Q); not shown: His6, N-terminal, kept
T4 sequence (looked up): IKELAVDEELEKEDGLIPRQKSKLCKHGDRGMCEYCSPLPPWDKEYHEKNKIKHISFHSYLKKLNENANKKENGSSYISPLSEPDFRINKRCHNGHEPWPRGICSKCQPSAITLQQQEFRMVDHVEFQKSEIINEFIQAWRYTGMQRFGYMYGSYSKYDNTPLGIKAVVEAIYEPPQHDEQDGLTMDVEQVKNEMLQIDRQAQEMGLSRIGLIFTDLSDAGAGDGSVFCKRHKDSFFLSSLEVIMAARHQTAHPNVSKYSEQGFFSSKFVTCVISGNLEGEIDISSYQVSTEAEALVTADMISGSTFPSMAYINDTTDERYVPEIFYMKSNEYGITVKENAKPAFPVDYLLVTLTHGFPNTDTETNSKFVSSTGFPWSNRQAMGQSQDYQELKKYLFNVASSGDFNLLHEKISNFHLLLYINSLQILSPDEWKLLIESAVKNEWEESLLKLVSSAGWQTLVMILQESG

No end group written: not given here.

B1: FlAsH-labeled His6-SUMO-yUfd1^288–305-GWCCPGCC (peptide, UniProt P53044 288-305, looked up)
chain: {His6-SUMO}-EPAKLDLPEGQLFFGFPMGWCCPGCC
modifications: cysteine pairing not given here; also: FlAsH label bound to CCPGCC motif
notes: the assay methods print 280-305; also called yUfd1-FlAsH; yUfd1 WT; source: E. coli Rosetta (DE3) (pCold-SUMO), purified (Ni-NTA, Resource Q), labeled with FlAsH-EDT2; not shown: His6, N-terminal, kept; SUMO, N-terminal, kept
In the case of B1, the dissociation constant (Kd) (commonly the free concentration of one partner at which half of the binding sites on the other are occupied at equilibrium, for simple one-to-one binding) worked out at 158 nM with His6-yNpl4^113–580 F419A, 164 nM with His6-yNpl4^113–580 M357A, 1380 nM with His6-yNpl4^113–580 L353A and 314 nM with His6-yNpl4^113–580 R364A.
